The values below come from article PMC4686757.

Series [1] addresses T1, E2F8 DBD1-DBD2 (human, UniProt A0AVK6 110-350). Kind of series: ITC; no binding detected under same conditions, 20 C; ITC: 20 mM HEPES pH 7.5, 150 mM NaCl, 5% glycerol, TCEP (printed 0.5 M), 20 C; 0.1 mM protein into 0.012-0.016 mM DNA.
Series [2] concerns the target T1, E2F8 DBD1-DBD2. The experiment in a line: ITC; 20 C; ITC: 20 mM HEPES pH 7.5, 150 mM NaCl, 5% glycerol, TCEP (printed 0.5 M), 20 C; 0.1 mM protein into 0.012-0.016 mM DNA.

T1 sequence (A0AVK6 110-350): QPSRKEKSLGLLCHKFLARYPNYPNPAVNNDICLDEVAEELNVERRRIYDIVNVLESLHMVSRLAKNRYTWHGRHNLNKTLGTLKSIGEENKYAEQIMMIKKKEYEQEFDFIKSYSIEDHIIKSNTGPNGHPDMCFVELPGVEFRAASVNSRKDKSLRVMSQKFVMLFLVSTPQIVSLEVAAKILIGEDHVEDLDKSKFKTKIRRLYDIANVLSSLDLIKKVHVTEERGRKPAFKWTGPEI

B1: canonical symmetrical E2F site GCGCGCC (dsDNA)
DNA 1: CTTTTGCGCGCCAAAG
DNA 2: CTTTGGCGCGCAAAAG
Turning to B1, in the series with E2F8 DBD1-DBD2 [1], the binding result was “no binding”.

B2: E2F8 SELEX-preferred site GGCGGG (dsDNA)
DNA 1: TTTTTGGCGGGAAAA
DNA 2: TTTTCCCGCCAAAAA
B2: in the series with E2F8 DBD1-DBD2 [2], the Kd is about 0.26 µM.
